# B1: 19-01-H04-sc02 (scFv, V domains shown)
# VH: EVQLVESGGGLVQPGGSLRLSCAASGFSLSSNAMGWVRQAPGKGLEYIGIISVGGFTYYASWAKGRFTISRDNSKNTVYLQMNSLRAEDTATYFCARDRHGGDSSGAFYLWGQGTLVTVSS
# VL: DIQMTQSPSSLSASVGDRVTITCQSSESVYSNNQLSWYQQKPGQPPKLLIYDASDLASGVPSRFSGSGSGTDFTLTISSLQPEDFATYYCAGGFSSSSDTAFGGGTKLTVLG
# notes: Humanized scFv (STR graft); also called 19-01-H04-sc02 STR; 19-01-H04-SC02 STR
# B2: 23-13-A01-sc02 (scFv, V domains shown)
# VH: EVQLVESGGGLVQPGGSLRLSCAASGFSFSSSYWICWVRQAPGKGLEWVGCVFTGDGTTYYASWAKGRFTISRDNSKNTVYLQMNSLRAEDTATYFCARPVSVYYYGMDLWGQGTLVTVSS
# VL: DVVMTQSPSSLSASVGDRVTITCQASQIISSRSAWYQQKPGQPPKLLIYQASKLASGVPSRFSGSGSGTDFTLTISSLQPEDFATYYCQCTYIDSNFGAFGGGTKLTVLG
# notes: Humanized scFv (STR graft); also called 23-13-A01-sc02 STR; 23-13-A01-SC02 STR
# How the values were obtained:
# cynomolgus serum albumin = biological target: T1, cynomolgus serum albumin (cynomolgus, UniProt A2V9Z4 25-608); experiment: SPR; sc02 against sc01; this end fits cynomolgus SA pH 5.5 in Table 3
# T1 construct: also called cynomolgus SA
# human serum albumin [1] = biological target: T2, human serum albumin (human, UniProt P02768 25-609); experiment: SPR; sc02 against sc01; this end fits human SA pH 5.5 in Table 3
# T2 construct: Coupled by amine chemistry to the SPR chip; also called HSA; human SA
# human serum albumin [2] = biological target: T2, human serum albumin; experiment: SPR; sc02 against sc01
Binder,fold improvement of affinity (STR graft over CDR graft) (cynomolgus serum albumin),fold improvement of affinity (STR graft over CDR graft) (human serum albumin [1]),fold improvement of affinity (STR graft over CDR graft) (human serum albumin [2])
B1,20 to 300 fold,20 to 300 fold,
B2,,,~3 fold
